# Experimental data as given in PMC3961392.
# Positions count from the first letter of the chain named.
# How the values were obtained:
# Test in all cases: fluorescence anisotropy
# A3F = molecular target: T1, A3F (UniProt Q8IUX4); details: apparent Kd; 10 mM Mg2+; RT buffer: 50 mM Tris pH 7.4, 40 mM KCl, 10 mM MgCl2, 1 mM DTT; 10 nM F-labeled DNA; 21 C
# T1 sequence: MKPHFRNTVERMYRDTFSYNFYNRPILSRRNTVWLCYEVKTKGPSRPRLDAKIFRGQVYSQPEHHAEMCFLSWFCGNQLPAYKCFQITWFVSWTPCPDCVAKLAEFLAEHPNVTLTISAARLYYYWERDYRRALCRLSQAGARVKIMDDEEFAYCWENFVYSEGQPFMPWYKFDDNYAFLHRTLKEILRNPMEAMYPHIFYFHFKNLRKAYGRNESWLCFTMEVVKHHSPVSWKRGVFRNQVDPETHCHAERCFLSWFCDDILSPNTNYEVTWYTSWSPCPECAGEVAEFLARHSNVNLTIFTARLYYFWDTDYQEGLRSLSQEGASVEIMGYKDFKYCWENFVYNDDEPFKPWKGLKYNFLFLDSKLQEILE
# A3F CTD = molecular target: T2, A3F CTD (UniProt Q8IUX4); details: RT buffer: 50 mM Tris pH 7.4, 40 mM KCl, 10 mM MgCl2, 1 mM DTT; 10 nM F-labeled DNA; 21 C
# T2 sequence: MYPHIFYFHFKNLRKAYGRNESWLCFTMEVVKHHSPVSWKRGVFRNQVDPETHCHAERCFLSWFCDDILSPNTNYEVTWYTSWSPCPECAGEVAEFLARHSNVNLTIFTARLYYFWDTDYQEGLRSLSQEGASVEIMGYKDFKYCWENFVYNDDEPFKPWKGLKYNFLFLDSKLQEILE
# A3F NGM P191G = molecular target: T3, A3F NGM P191G (UniProt Q8IUX4); details: RT buffer: 50 mM Tris pH 7.4, 40 mM KCl, 10 mM MgCl2, 1 mM DTT; 10 nM F-labeled DNA; 21 C
# T3 sequence: T1 sequence with P191G
# GST-A3F = molecular target: T4, GST-A3F (UniProt Q8IUX4); details: RT buffer: 50 mM Tris pH 7.4, 40 mM KCl, 10 mM MgCl2, 1 mM DTT; 10 nM F-labeled DNA; 21 C
# T4 sequence: T1 sequence
sequence,measurement,setting,value
GAATATAGTTTTTAGTTCAAAGTAAGTGAAGATAATTTAGAGAGTTGTAATGTGATATATGTGTATGAAAGATATAAGATTCAAAGAGTAAAGTTGTTAATGTGTGTAGATATGTTAA [A3F - 63 (TTC) (118 nt)],Kd,A3F,20 nM
same,Kd,A3F CTD,288 nM
same,Kd,A3F NGM P191G,119 nM
same,Kd,GST-A3F,46 nM
